Assay results published in PMC5091765.

How the values were obtained:
[1] = molecular target: bovine TGF-β RI extracellular domain fused to the human IgG1 Fc domain (bovine) (UniProt O46680)
[2] = molecular target: bovine TGF-β RII extracellular domain fused to the human IgG1 Fc domain (bovine)
[3] = molecular target: bovine TGF-β RI extracellular domain fused to the human IgG1 Fc domain (bovine) (UniProt O46680); test: ELISA; competition: TGF-β coated at 400 ng/mL; increasing concentrations of FhTLM incubated with the Receptor-Fc fusion in solution at 37°C for 1 hr, then added to the plate
[4] = molecular target: bovine TGF-β RII extracellular domain fused to the human IgG1 Fc domain (bovine); test: as above
[5] = molecular target: bovine TGF-β RI extracellular domain fused to the human IgG1 Fc domain (bovine) (UniProt O46680); test: ELISA; competition: FhTLM coated at 400 ng/mL; increasing concentrations of TGF-β incubated with the Receptor-Fc fusion in solution at 37°C for 1 hr, then added to the plate
[6] = molecular target: bovine TGF-β RII extracellular domain fused to the human IgG1 Fc domain (bovine); test: as above

Chain of bovine TGF-β RI extracellular domain fused to the human IgG1 Fc domain (bovine) (O46680 30-122): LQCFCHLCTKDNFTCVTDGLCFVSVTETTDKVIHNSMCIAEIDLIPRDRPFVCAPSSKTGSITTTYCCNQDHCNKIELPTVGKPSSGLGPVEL

Row | Substance | percent of primary bovine PBMCs positive for pSmad2/3 co-localised with the nucleus, 3 to 4 hrs with FhTLM [1] | percent of primary bovine PBMCs positive for pSmad2/3 co-localised with the nucleus, 3 to 4 hrs with FhTLM [2] | percent reduction of the binding of TGF-β RI-Fc to immobilised TGF-β1 [3] | percent reduction of the binding of TGF-β RII-Fc to immobilised TGF-β1 [4] | percent reduction of the binding of TGF-β RI-Fc (printed as TGF-β RII-Fc a second time) to immobilised FhTLM [5] | percent reduction of the binding of TGF-β RII-Fc to immobilised FhTLM [6]
1 | F. hepatica TGF-like molecule, FhTLM (recombinant) (ligand) | 15.8 % of cells | 15.8 % of cells | 42% | 46% | – | –
2 | human TGF-β1 (ligand) | – | – | – | – | 22% | 50%
